Data taken from FireProtDB (doi:10.1111/j.1432-1033.1993.tb17904.x).
Values joined by “and” are separate entries in the source; they are usually repeats but may differ in a detail not shown here. Identical values can stand only once.

Details: Carica papaya, Thermal, DSC, glycine-HCl 5 mM, reversible: yes, whole UniProt chain shown

B1: Papain wild type, P00784 (protein)
chain: MAMIPSISKLLFVAICLFVYMGLSFGDFSIVGYSQNDLTSTERLIQLFESWMLKHNKIYKNIDEKIYRFEIFKDNLKYIDETNKKNNSYWLGLNVFADMSNDEFKEKYTGSIAGNYTTTELSYEEVLNDGDVNIPEYVDWRQKGAVTPVKNQGSCGSCWAFSAVVTIEGIIKIRTGNLNEYSEQELLDCDRRSYGCNGGYPWSALQLVAQYGIHYRNTYPYEGVQRYCRSREKGPYAAKTDGVRQVQPYNEGALLYSIANQPVSVVLEAAGKDFQLYRGGIFVGPCGNKVDHAVAAVGYGPNYILIKNSWGTGWGENGYIRIKRGTGNSYGVCGLYTSSFYPVKN
pH 1.9
  unfolding enthalpy (calorimetric): 119 kcal/mol and 98.7 kcal/mol
  unfolding enthalpy (van 't Hoff): 65.2 kcal/mol and 50.6 kcal/mol
pH 2.4
  unfolding enthalpy (calorimetric): 133 kcal/mol and 143 kcal/mol and 111 kcal/mol
  unfolding enthalpy (van 't Hoff): 72.6 kcal/mol and 82.3 kcal/mol and 62.9 kcal/mol
pH 2.9
  Tm: 69.5 °C and 70.4 °C
  unfolding enthalpy (calorimetric): 154 kcal/mol and 162 kcal/mol
  unfolding enthalpy (van 't Hoff): 79.6 kcal/mol and 89.2 kcal/mol
pH 3.5
  unfolding enthalpy (calorimetric): 206 kcal/mol and 226 kcal/mol and 189 kcal/mol
  unfolding enthalpy (van 't Hoff): 113 kcal/mol and 118 kcal/mol and 98.9 kcal/mol
pH 3.9
  unfolding enthalpy (calorimetric): 229 kcal/mol and 232 kcal/mol and 198 kcal/mol
  unfolding enthalpy (van 't Hoff): 132 kcal/mol and 130 kcal/mol and 114 kcal/mol
